Non-standard residues stand in square brackets, D forms with d. No end group written: not given here. dCha = N[C@H](CC1CCCCC1)C(=O)O
biological target: FP receptor in porcine tissue (retinal microvessels, uterine myometrium) (pig); test: cell-based or functional assay

| Binder | % Inhibition of Maximal Response, 100 µM peptide, 10^-7 M PGF2α, porcine eyecup [%] | % Vasomotor Response (of maximum constriction), 100 µM peptide, 10^-7 M PGF2α, porcine eyecup [%] |
| --- | --- | --- |
| ILGHRDYK [PCP-8] | 50 | 50 |
| [dI][dL]G[dH][dR][dD][dY][dK] [PCP-13] | 80 | 20 |
| [dI][dL]G[dF][dR][dD][dY][dK] [PCP-13.11] | 87 | 13 |
| [dI][dL]G[dH][dK][dD][dY][dK] [PCP-13.13] | 63.1 | 36.9 |
| [dI][dL][dA][dH][dR][dD][dY][dK] [PCP-13.7] | 76.2 | 23.8 |
| [dI][dL]G[dH][dQ][dD][dY][dK] [PCP-13.18] | 70 | 30 |
| WEDRFYLL [PCP-10] | 80 | 20 |
| [dI][dL]A[dH][dR][dD][dY][dK] [PCP-13.8] | 53.2 | 46.8 |

Other lines, results leading:

| % Inhibition of Maximal Response, 100 µM peptide, 10^-7 M PGF2α, porcine eyecup [%] | % Vasomotor Response (of maximum constriction), 100 µM peptide, 10^-7 M PGF2α, porcine eyecup [%] | Binder |
| --- | --- | --- |
| 88.1 | 11.9 | [dS][dN][dV][dL][dC][dS][dI][dF] [PCP-15] |
| 50.4 | 49.6 | [dI][dL]G[dH][dR][dD][dY]-NH2 (N-terminus assumed; SMILES CC[C@@H](C)[C@@H](N)C(=O)N[C@H](CC(C)C)C(=O)NCC(=O)N[C@H](Cc1c[nH]cn1)C(=O)N[C@H](CCCNC(=N)N)C(=O)N[C@H](CC(=O)O)C(=O)N[C@H](Cc1ccc(O)cc1)C(N)=O) [PCP-13.20] |
| 53.8 | 46.2 | [dI][dL]G[dH][dR][dD][dY][dK]-NH2 (N-terminus assumed; SMILES CC[C@@H](C)[C@@H](N)C(=O)N[C@H](CC(C)C)C(=O)NCC(=O)N[C@H](Cc1c[nH]cn1)C(=O)N[C@H](CCCNC(=N)N)C(=O)N[C@H](CC(=O)O)C(=O)N[C@H](Cc1ccc(O)cc1)C(=O)N[C@H](CCCCN)C(N)=O) [PCP-13.21] |
| 93.8 | 6.2 | [dI][dL]G[dCha][dR][dD][dY][dK] [PCP-13.24] |
| 83.4 | 16.6 | [dI][dL]G[dW][dR][dD][dY][dK] [PCP-13.22] |
| 64 | 36 | [dY][dQ][dD][dR][dF][dY][dL][dL] [PCP-14] |

biological target: PAF receptor in porcine retinal microvessels (pig, UniProt Q9XSD4 1-342); test: cell-based or functional assay
Sequence (Q9XSD4 whole entry): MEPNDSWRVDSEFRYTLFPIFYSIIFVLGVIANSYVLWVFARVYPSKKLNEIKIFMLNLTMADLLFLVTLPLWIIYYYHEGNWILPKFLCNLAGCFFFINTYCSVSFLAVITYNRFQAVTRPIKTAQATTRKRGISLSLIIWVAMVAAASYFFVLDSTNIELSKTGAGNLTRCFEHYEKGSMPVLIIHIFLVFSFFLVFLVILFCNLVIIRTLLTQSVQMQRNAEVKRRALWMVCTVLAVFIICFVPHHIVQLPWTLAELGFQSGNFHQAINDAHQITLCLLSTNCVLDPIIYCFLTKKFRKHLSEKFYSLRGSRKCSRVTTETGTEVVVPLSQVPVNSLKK

| IC50, C-PAF induced retinal vasomotor responses, porcine eyecup [nM] | Binder |
| --- | --- |
| 134 | [dL][dV][dP][dV][dS]G[dK][dE][dY] [SEQ ID NO:85] |

biological target: Urotensin receptor (GPR14) in porcine tissue (retinal microvessels, aortic strips) (pig); test: cell-based or functional assay

| IC50, U-II (1 µM) mediated contractility of retinal microvessels [nM] | Binder |
| --- | --- |
| 115 | [dV][dI][dR][dA][dT][dR][dP][dA][dL] [SEQ ID NO:79] |

Source: patent publication US20040235749A1 (HOSPITAL SAINTE JUSTINE, published 2004)
